Assay results as given in the supplement of paper PMC5998384.

Key:
[1] = test system: HeLa Kyoto; assay: solubility in G1/S (NP-40 vs SDS abundance) (log2 ratio); higher = more soluble; conditions: cell cycle stage: G1/S
[2] = test system: HeLa Kyoto; assay: solubility change mitosis vs G1/S (difference of NP-40 vs SDS log2 ratios) (log2 ratio difference); higher = more soluble in mitosis
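For solubility change mitosis vs G1/S (difference of NP-40 vs SDS log2 ratios) in this document: synchronized HeLa Kyoto cells (double thymidine block for G1/S, nocodazole release for mitosis), protein amounts in NP-40 versus SDS lysates quantified by mass spectrometry, three biological replicates.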
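For solubility in G1/S (NP-40 vs SDS abundance) in this document: HeLa Kyoto cells arrested at G1/S by double thymidine block, proteins quantified by TMT10plex mass spectrometry in mild NP-40 versus SDS extracts, three biological replicates.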

Chain of SENP3 (chain, as listed by the source): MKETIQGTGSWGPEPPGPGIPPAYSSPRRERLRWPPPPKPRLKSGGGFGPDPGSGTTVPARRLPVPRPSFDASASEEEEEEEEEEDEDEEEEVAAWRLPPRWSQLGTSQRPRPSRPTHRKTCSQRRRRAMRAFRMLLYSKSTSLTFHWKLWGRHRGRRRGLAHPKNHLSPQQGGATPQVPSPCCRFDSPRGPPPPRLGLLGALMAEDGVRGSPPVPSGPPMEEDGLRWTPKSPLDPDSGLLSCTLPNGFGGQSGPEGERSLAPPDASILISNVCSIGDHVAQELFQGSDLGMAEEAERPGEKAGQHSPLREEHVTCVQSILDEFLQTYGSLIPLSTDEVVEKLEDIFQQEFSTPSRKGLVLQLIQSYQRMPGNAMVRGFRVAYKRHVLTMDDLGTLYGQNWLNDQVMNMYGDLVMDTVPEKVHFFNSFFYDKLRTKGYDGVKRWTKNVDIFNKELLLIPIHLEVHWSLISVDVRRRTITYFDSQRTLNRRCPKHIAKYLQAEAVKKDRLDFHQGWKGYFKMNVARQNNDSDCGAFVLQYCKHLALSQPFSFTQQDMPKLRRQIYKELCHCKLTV

For “MPPGKVLQPVLKMKVDELFLYWLSEASTQRMLQDCLRRIKAPGRDQPTPGDGEQPGAWPTAPLAAPRPSGLEPPGTPGPGPALPLGAASSPRNAPHVRGTRRSAGTRVVQTRKEEPLPPATSQSIPTFYFPRGRPQDSVNVDAVISKIESTFARFPHERATMDDMGLVAKACGCPLYWKGPLFYGAGGERTGSVSVHKFVAMWRKILQNCHDDAAKFVHLLMSPGCNYLVQEDFVPFLQDVVNTHPGLSFLKEASEFHSRYITTVIQRIFYAVNRSWSGRITCAELRRSSFLQNVALLEEEADINQLTEFFSYEHFYVIYCKFWELDTDHDLLIDADDLARHNDHALSTKMIDRIFSGAVTRGRKVQKEGKISYADFVWFLISEEDKKTPTSIEYWFRCMDLDGDGALSMFELEYFYEEQCRRLDSMAIEALPFQDCLCQMLDLVKPRTEGKITLQDLKRCKLANVFFDTFFNIEKYLDHEQKEQISLLRDGDSGGPELSDWEKYAAEEYDILVAEETAGEPWEDGFEAELSPVEQKLSALRSPLAQRPFFEAPSPLGAVDLYEYACGDEDLEPL [PPP2R3B]”, the “solubility in G1/S (log2)” value [1] was 0.0833 and the “solubility change mitosis (log2)” value [2] was -0.203.

In the case of “MAPGEVTITVRLIRSFEHRNFKPVVYHGVNLDQTVKEFIVFLKQDIPLRTNLPPPFRNYKYDALKIIHQAHKSKTNELVLSLEDDERLLLKEDSTLKAAGIASETEIAFFCEEDYKNYKANPISSW [C2ORF76]”, the “solubility in G1/S (log2)” value [1] is reported as -0.239 and the “solubility change mitosis (log2)” value [2] is reported as 0.0795.

“MGVSKLDILYRRLLLTKLFIRGWGRPEDLKRLFEFRKMIGNRERCQNLVSSDYPVHIDKIEEQSDCKILDGHFVSPMAHYVPDIMPIESVIARFQFIVPKEWNSKYRPVCIHLAGTGDHHYWRRRTLMARPMIKEARMASLLLENPYYGCRKPKDQVRSSLKNVSDLFVMGGALVLESAALLHWLEREGYGPLGMTGISMGGHMASLAVSNWPKPMPLIPCLSWSTASGVFTTTDSFKMGQEFVKHFTSSADKLTNLNLVSRTLNLDISNQVVSQKPADCHNSSKTSVSATSEGLLLQDTSKMKRFNQTLSTNKSGYTSRNPQSYHLLSKEQSRNSLRKESLIFMKGVMDECTHVANFSVPVDPSLIIVVQAKEDAYIPRTGVRSLQEIWPGCEIRYLEGGHISAYLFKQGLFR [ABHD18]” was tested, and the “solubility in G1/S (log2)” value [1] was -0.33 and the “solubility change mitosis (log2)” value [2] was -0.181.

In the case of “MKPVHERSQECLPPKKRDLPVTSEDMGRTTSCSTNHTPSSDASEWSRGVVVAGQSQAGARVSLGGDGAEAITGLTVDQYGMLYKVAVPPATFSPTGLPSVVNMSPLPPTFNVASSLIQHPGIHYPPLHYAQLPSTSLQFIGSPYSLPYAVPPNFLPSPLLSPSANLATSHLPHFVPYASLLAEGATPPPQAPSPAHSFNKAPSATSPSGQLPHHSSTQPLDLAPGRMPIYYQMSRLPAGYTLHETPPAGASPVLTPQESQSALEAAAANGGQRPRERNLVRRESEALDSPNSKGEGQGLVPVVECVVDGQLFSGSQTPRVEVAAPAHRGTPDTDLEVQRVVGALASQDYRVVAAQRKEEPSPLNLSHHTPDHQGEGRGSARNPAELAEKSQARGFYPQSHQEPVKHRPLPKAMVVANGNLVPTGTDSGLLPVGSEILVASSLDVQARATFPDKEPTPPPITSSHLPSHFMKGAIIQLATGELKRVEDLQTQDFVRSAEVSGGLKIDSSTVVDIQESQWPGFVMLHFVVGEQQSKVSIEVPPEHPFFVYGQGWSSCSPGRTTQLFSLPCHRLQVGDVCISISLQSLNSNSVSQASCAPPSQLGPPRERPERTVLGSRELCDSEGKSQPAGEGSRVVEPSQPESGAQACWPAPSFQRYSMQGEEARAALLRPSFIPQEVKLSIEGRSNAGK [ATXN1L]”, the “solubility in G1/S (log2)” value [1] is reported as 0.172 and the “solubility change mitosis (log2)” value [2] is reported as -0.12.

With “MRLFLWNAVLTLFVTSLIGALIPEPEVKIEVLQKPFICHRKTKGGDLMLVHYEGYLEKDGSLFHSTHKHNNGQPIWFTLGILEALKGWDQGLKGMCVGEKRKLIIPPALGYGKEGKGKIPPESTLIFNIDLLEIRNGPRSHESFQEMDLNDDWKLSKDEVKAYLKKEFEKHGAVVNESHHDALVEDIFDKEDEDKDGFISAREFTYKHDEL [FKBP14]” the “solubility in G1/S (log2)” value [1] was 0.295 and the “solubility change mitosis (log2)” value [2] was -0.053.

With “MDIIETAKLEEHLENQPSDPTNTYARPAEPVEEENKNGNGKPKSLSSGLRKGTKKYPDYIQIAMPTESRNKFPLEWWKTGIAFIYAVFNLVLTTVMITVVHERVPPKELSPPLPDKFFDYIDRVKWAFSVSEINGIILVGLWITQWLFLRYKSIVGRRFCFIIGTLYLYRCITMYVTTLPVPGMHFQCAPKLNGDSQAKVQRILRLISGGGLSITGSHILCGDFLFSGHTVTLTLTYLFIKEYSPRHFWWYHLICWLLSAAGIICILVAHEHYTIDVIIAYYITTRLFWWYHSMANEKNLKVSSQTNFLSRAWWFPIFYFFEKNVQGSIPCCFSWPLSWPPGCFKSSCKKYSRVQKIGEDNEKST [SGMS2]” the “solubility in G1/S (log2)” value [1] was -0.197 and the “solubility change mitosis (log2)” value [2] was -0.0915.

In the case of SENP3, the “solubility in G1/S (log2)” value [1] is reported as -1.5 and the “solubility change mitosis (log2)” value [2] is reported as 1.04.

In the case of “MAGARRLELGEALALGSGWRHACHALLYAPDPGMLFGRIPLRYAILMQMRFDGRLGFPGGFVDTQDRSLEDGLNRELREELGEAAAAFRVERTDYRSSHVGSGPRVVAHFYAKRLTLEELLAVEAGATRAKDHGLEVLGLVRVPLYTLRDGVGGLPTFLENSFIGSAREQLLEALQDLGLLQSGSISGLKIPAHH [NUDT16]”, the “solubility in G1/S (log2)” value [1] is reported as 0.0531 and the “solubility change mitosis (log2)” value [2] is reported as -0.184.

With “METPPVNTIGEKDTSQPQQEWEKNLRENLDSVIQIRQQPRDPPTETLELEVSPDPASQILEHTQGAEKLVAELEGDSHKSHGSTSQMPEALQASDLWYCPDGSFVKKIVIRGHGLDKPKLGSCCRVLALGFPFGSGPPEGWTELTMGVGPWREETWGELIEKCLESMCQGEEAELQLPGHSGPPVRLTLASFTQGRDSWELETSEKEALAREERARGTELFRAGNPEGAARCYGRALRLLLTLPPPGPPERTVLHANLAACQLLLGQPQLAAQSCDRVLEREPGHLKALYRRGVAQAALGNLEKATADLKKVLAIDPKNRAAQEELGKVVIQGKNQDAGLAQGLRKMFG [FKBPL]” the “solubility in G1/S (log2)” value [1] was 0.618 and the “solubility change mitosis (log2)” value [2] was 0.144.

In the case of “MGDDRPFVCNAPGCGQRFTNEDHLAVHKHKHEMTLKFGPARTDSVIIADQTPTPTRFLKNCEEVGLFNELASSFEHEFKKAADEDEKKAAAGPLDMSLPSTPDIKIKEEEPVEVDSSPPDSPASSPCSPPLKEKEVTPKPVLISTPTPTIVRPGSLPLHLGYDPLHPTLPSPTSVITQAPPSNRQMGSPTGSLPLVMHLANGQTMPVLPGPPVQMPSVISLARPVSMVPNIPGIPGPPVNSSGSISPSGHPIPSEAKMRLKATLTHQVSSINGGCGMVVGTASTMVTARPEQSQILIQHPDAPSPAQPQVSPAQPTPSTGGRRRRTVDEDPDERRQRFLERNRAAASRCRQKRKLWVSSLEKKAEELTSQNIQLSNEVTLLRNEVAQLKQLLLAHKDCPVTALQKKTQGYLESPKESSEPTGSPAPVIQHSSATAPSNGLSVRSAAEAVATSVLTQMASQRTELSMPIQSHVIMTPQSQSAGR [ATF7]”, the “solubility in G1/S (log2)” value [1] is reported as 0.504 and the “solubility change mitosis (log2)” value [2] is reported as 0.0933.

“MAPPAGGAAAAASDLGSAAVLLAVHAAVRPLGAGPDAEAQLRRLQLSADPERPGRFRLELLGAGPGAVNLEWPLESVSYTIRGPTQHELQPPPGGPGTLSLHFLNPQEAQRWAVLVRGATVEGQNGSKSNSPPALGPEACPVSLPSPPEASTLKGPPPEADLPRSPGNLTEREELAGSLARAIAGGDEKGAAQVAAVLAQHRVALSVQLQEACFPPGPIRLQVTLEDAASAASAASSAHVALQVHPHCTVAALQEQVFSELGFPPAVQRWVIGRCLCVPERSLASYGVRQDGDPAFLYLLSAPREAPATGPSPQHPQKMDGELGRLFPPSLGLPPGPQPAASSLPSPLQPSWSCPSCTFINAPDRPGCEMCSTQRPCTWDPLAAAST [SHARPIN]” was tested, and the “solubility in G1/S (log2)” value [1] was 0.196 and the “solubility change mitosis (log2)” value [2] was -0.0725.

With “MRLTPRALCSAAQAAWRENFPLCGRDVARWFPGHMAKGLKKMQSSLKLVDCIIEVHDARIPLSGRNPLFQETLGLKPHLLVLNKMDLADLTEQQKIMQHLEGEGLKNVIFTNCVKDENVKQIIPMVTELIGRSHRYHRKENLEYCIMVIGVPNVGKSSLINSLRRQHLRKGKATRVGGEPGITRAVMSKIQVSERPLMFLLDTPGVLAPRIESVETGLKLALCGTVLDHLVGEETMADYLLYTLNKHQRFGYVQHYGLGSACDNVERVLKSVAVKLGKTQKVKVLTGTGNVNIIQPNYPAAARDFLQTFRRGLLGSVMLDLDVLRGHPPAETLP [MTG1]” the “solubility in G1/S (log2)” value [1] was 0.123 and the “solubility change mitosis (log2)” value [2] was -0.0796.

With “MAGPQPLALQLEQLLNPRPSEADPEADPEEATAARVIDRFDEGEDGEGDFLVVGSIRKLASASLLDTDKRYCGKTTSRKAWNEDHWEQTLPGSSDEEISDEEGSGDEDSEGLGLEEYDEDDLGAAEEQECGDHRESKKSRSHSAKTPGFSVQSISDFEKFTKGMDDLGSSEEEEDEESGMEEGDDAEDSQGESEEDRAGDRNSEDDGVVMTFSSVKVSEEVEKGRAVKNQIALWDQLLEGRIKLQKALLTTNQLPQPDVFPLFKDKGGPEFSSALKNSHKALKALLRSLVGLQEELLFQYPDTRYLVDGTKPNAGSEEISSEDDELVEEKKQQRRRVPAKRKLEMEDYPSFMAKRFADFTVYRNRTLQKWHDKTKLASGKLGKGFGAFERSILTQIDHILMDKERLLRRTQTKRSVYRVLGKPEPAAQPVPESLPGEPEILPQAPANAHLKDLDEEIFDDDDFYHQLLRELIERKTSSLDPNDQVAMGRQWLAIQKLRSKIHKKVDRKASKGRKLRFHVLSKLLSFMAPIDHTTMNDDARTELYRSLFGQLHPPDEGHGD [AATF]” the “solubility in G1/S (log2)” value [1] was -2.12 and the “solubility change mitosis (log2)” value [2] was 0.788.

“MCTKMEQPFYHDDSYTATGYGRAPGGLSLHDYKLLKPSLAVNLADPYRSLKAPGARGPGPEGGGGGSYFSGQGSDTGASLKLASSELERLIVPNSNGVITTTPTPPGQYFYPRGGGSGGGAGGAGGGVTEEQEGFADGFVKALDDLHKMNHVTPPNVSLGATGGPPAGPGGVYAGPEPPPVYTNLSSYSPASASSGGAGAAVGTGSSYPTTTISYLPHAPPFAGGHPAQLGLGRGASTFKEEPQTVPEARSRDATPPVSPINMEDQERIKVERKRLRNRLAATKCRKRKLERIARLEDKVKTLKAENAGLSSTAGLLREQVAQLKQKVMTHVSNGCQLLLGVKGHAF [JUNB]” was tested, and the “solubility in G1/S (log2)” value [1] was 0.0721 and the “solubility change mitosis (log2)” value [2] was 0.346.

In the case of CHD6, the “solubility in G1/S (log2)” value [1] is reported as -0.23 and the “solubility change mitosis (log2)” value [2] is reported as -0.0389.

For “MDEADRRLLRRCRLRLVEELQVDQLWDALLSRELFRPHMIEDIQRAGSGSRRDQARQLIIDLETRGSQALPLFISCLEDTGQDMLASFLRTNRQAAKLSKPTLENLTPVVLRPEIRKPEVLRPETPRPVDIGSGGFGDVGALESLRGNADLAYILSMEPCGHCLIINNVNFCRESGLRTRTGSNIDCEKLRRRFSSLHFMVEVKGDLTAKKMVLALLELAQQDHGALDCCVVVILSHGCQASHLQFPGAVYGTDGCPVSVEKIVNIFNGTSCPSLGGKPKLFFIQACGGEQKDHGFEVASTSPEDESPGSNPEPDATPFQEGLRTFDQLDAISSLPTPSDIFVSYSTFPGFVSWRDPKSGSWYVETLDDIFEQWAHSEDLQSLLLRVANAVSVKGIYKQMPGCFNFLRKKLFFKTS [CASP9]”, the “solubility in G1/S (log2)” value [1] was 0.32 and the “solubility change mitosis (log2)” value [2] was -0.0656.

In the case of “MASVLSYESLVHAVAGAVGSVTAMTVFFPLDTARLRLQVDEKRKSKTTHMVLLEIIKEEGLLAPYRGWFPVISSLCCSNFVYFYTFNSLKALWVKGQHSTTGKDLVVGFVAGVVNVLLTTPLWVVNTRLKLQGAKFRNEDIVPTNYKGIIDAFHQIIRDEGISALWNGTFPSLLLVFNPAIQFMFYEGLKRQLLKKRMKLSSLDVFIIGAVAKAIATTVTYPLQTVQSILRFGRHRLNPENRTLGSLRNILYLLHQRVRRFGIMGLYKGLEAKLLQTVLTAALMFLVYEKLTAATFTVMGLKRAHQH [SLC25A17]”, the “solubility in G1/S (log2)” value [1] is reported as -0.148 and the “solubility change mitosis (log2)” value [2] is reported as -0.0966.
